Test results published in doi:10.1101/2020.04.16.045526.

B1: HapR BS 1 probe (32 bp) (dsDNA)
DNA 1: TAGGTTTGTTAGTGTTTACTTACTTATTTGGC
DNA 2: GCCAAATAAGTAAGTAAACACTAACAAACCTA
modifications: Cy5-dCTP added to the 3' end of one strand by TdT (strand not stated)
B2: HapR BS 2 probe (32 bp) (dsDNA)
DNA 1: AATTGCAATTGATAAATTTCTTGGCTAGGTGT
DNA 2: ACACCTAGCCAAGAAATTTATCAATTGCAATT
modifications: Cy5-dCTP added to the 3' end of one strand by TdT (strand not stated)

Molecular target: HapR (Vibrio cholerae E7946 (El Tor), UniProt Q4F6W7 1-203)
Experiment: EMSA

Row | Binder | binding result
1 | B1 | binds
2 | B2 | binds
